The values that follow come from patent publication US20160002344A1 (ONCOMED PHARMACEUTICALS, published 2016).

Where a chain is given by its changes, count along the chain named.

To fix the notation:
T1: soluble LGR5-Fc fusion protein (human, UniProt O75473 22-564)
T1 construct: range 22-564; Expressed in insect cells with baculovirus, purified on protein A; not shown: human Fc
T1 sequence (looked up): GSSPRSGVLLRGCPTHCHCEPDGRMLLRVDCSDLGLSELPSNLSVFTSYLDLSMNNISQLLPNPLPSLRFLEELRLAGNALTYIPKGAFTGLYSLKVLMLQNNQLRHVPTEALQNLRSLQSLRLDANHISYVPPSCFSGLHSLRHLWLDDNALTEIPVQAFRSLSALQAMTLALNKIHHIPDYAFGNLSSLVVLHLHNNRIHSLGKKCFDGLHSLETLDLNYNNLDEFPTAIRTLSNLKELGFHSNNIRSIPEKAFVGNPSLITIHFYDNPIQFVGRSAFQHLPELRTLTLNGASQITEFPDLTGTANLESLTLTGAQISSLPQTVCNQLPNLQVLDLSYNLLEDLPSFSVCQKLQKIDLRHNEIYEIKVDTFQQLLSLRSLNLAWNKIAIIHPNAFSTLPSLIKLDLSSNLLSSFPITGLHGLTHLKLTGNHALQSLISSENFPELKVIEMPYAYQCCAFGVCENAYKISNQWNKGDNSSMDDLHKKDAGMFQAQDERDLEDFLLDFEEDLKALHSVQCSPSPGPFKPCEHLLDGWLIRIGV

B1: recombinant human RSPO1-Fc fusion protein (Fc fusion)
chain: SRGIKGKRQRRISAEGSQACAKGCELCSEVNGCLKCSPKLFILLERNDIRQVGVCLPSCPPGYFDARNPDMNKCIKCKIEHCEACFSHNFCTKCKEGLYLHKGRCYPACPEGSSAANGTMECSSPAQCEMSEWSPWGPCSKKQQLCGFRRGSEERTRRVLHAPVGDHAACSDTKETRRCTVRRVPCPEGQKRRKGGQGRRENANRNLARKESKEAGAGSRRRKGQQQQQQQGTVGPLTSAGPA
notes: not shown: human Fc region
B2: recombinant human RSPO4-Fc fusion protein (Fc fusion)
chain: LNRRKKQVGTGLGGNCTGCIICSEENGCSTCQQRLFLFIRREGIRQYGKCLHDCPPGYFGIRGQEVNRCKKCGATCESCFSQDFCIRCKRQFYLYKGKCLPTCPPGTLAHQNTRECQGECELGPWGGWSPCTHNGKTCGSAWGLESRVREAGRAGHEEAATCQVLSESRKCPIQRPCPGERSPGQKKGRKDRRPRKDRKLDRRLDVRPRQPGLQP
notes: not shown: human Fc region
B3: humanized anti-RSPO2 antibody h130M23-H1L2 (antibody, human IgG2, kappa, V domains shown)
VH: EVQLVESGGGLVKPGGSLRLSCAASGFTFSSYAMSWVRQAPGKGLEWVSSISSGGSTYYPDSVKGRFTISRDNAKNSLYLQMNSLRAEDTAVYYCARGGDPGVYNGDYEDAMDYWGQGTTVTVSS
VL: DIQMTQSPSSLSASVGDRVTITCKASQDVSSAVAWYQQKPGKAPKLLIYWASTRHTGVPSRFSGSGSGTDFTLTISSVQAEDFATYYCQQHYSTPWTFGQGTKVEIKR
notes: also called 130M23-H1 with 130M23-L2
B4: humanized anti-RSPO2 antibody h130M23-H1L6 (antibody, human IgG2, kappa, V domains shown)
VH: B3 VH
VL: B3 VL with V78L, A80P
B5: anti-RSPO1 monoclonal antibody 89M5 (hybridoma ATCC PTA-11970) (antibody, mouse IgG1, kappa, V domains shown)
VH: EVQLQQSGPELVKPGASVKISCKTSGYTFTGYTMHWVRQSHGKTLEWIGGINPNNGGTTYNQNFKGKATLTVEKSSTTAYLELRSLTSEDSALYYCARKEFSDGYYFFAYWGQGTLVTVSS
VL: DIVMTQSHKFMSTSVGDRVNITCKASQDVIFAVAWYQQKPGQSPKLLIYWASTRHTGVPDRFTGSVSGTDYTLTISSVQAEDLALYYCQQHYSTPWTFGGGTKLEIKR
notes: Murine monoclonal antibody; also called parental 89M5 antibody
B6: anti-RSPO2 monoclonal antibody 130M23 (hybridoma ATCC PTA-12021) (antibody, mouse IgG1, kappa, V domains shown)
VH: EVKLVESGGGLVKPGGSLKFSCAASGFSFSSYAMSWVRQTPEKRLEWVASISSGGSTYYPDSVKGRFTISRDNVRNILYLQMSSLRSEDTAMYFCARGGDPGVYNGDYEDAMDYWGQGTSVTVSS
VL: B5 VL with N20S, I30S, F31S, G64N, V66G
notes: Murine monoclonal antibody; also called parental 130M23 antibody
B7: anti-RSPO1 monoclonal antibody 89M4 (antibody, V domains shown)
VH: B5 VH with S121A
VL: DIVMTQSHKFMSTSVGDRVNITCKASQDVIFAVAWYQQKPGQSPKLLIYWASTRHTGVPDRFTGSVSGTDYTLTISSVQAEDLALYYCQQHYSTPWTFGGGTKLEIK
B8: anti-RSPO1 monoclonal antibody 89M25 (antibody, V domains shown)
VH: B5 VH with S121A
VL: B7 VL
B9: recombinant human RSPO3-Fc fusion protein (Fc fusion)
chain: QNASRGRRQRRMHPNVSQGCQGGCATCSDYNGCLSCKPRLFFALERIGMKQIGVCLSSCPSGYYGTRYPDINKCTKCKADCDTCFNKNFCTKCKSGFYLHLGKCLDNCPEGLEANNHTMECVSIVHCEVSEWNPWSPCTKKGKTCGFKRGTETRVREIIQHPSAKGNLCPPTNETRKCTVQRKKCQKGERGKKGRERKRKKPNKGESKEAIPDSKSLESSKEIPEQRENKQQQKKRKVQDKQKSVSVSTVH
notes: not shown: human Fc region
B10: recombinant human RSPO2-Fc fusion protein (Fc fusion)
chain: QGNRWRRSKRASYVSNPICKGCLSCSKDNGCSRCQQKLFFFLRREGMRQYGECLHSCPSGYYGHRAPDMNRCARCRIENCDSCFSKDFCTKCKVGFYLHRGRCFDECPDGFAPLEETMECVEGCEVGHWSEWGTCSRNNRTCGFKWGLETRTRQIVKKPVKDTIPCPTIAESRRCKMTMRHCPGGKRTPKAKEKRNKKKKRKLIERAQEQHSVFLATDRANQ
notes: not shown: human Fc region

Assay [1] has as its target T1, soluble LGR5-Fc fusion protein. The assay is described as follows: SPR (Biacore 2000), RSPO-Fc immobilized on CM5 chip, soluble LGR5-Fc injected 100 nM to 0.78 nM. Here is the method:
Binding affinities between RSPO proteins and LGR5 were analyzed by surface plasmon resonance. A soluble LGR5-Fc construct was generated using standard recombinant DNA techniques. Specifically, amino acids 1-564 of human LGR5 were ligated in frame to human Fc and the recombinant LGR5-Fc fusion protein was expressed in insect cells using baculovirus. The LGR5-Fc fusion protein was purified from the insect medium using protein A chromatography. Cleavage of the LGR5 signal sequence results in a mature LGR5-Fc fusion protein containing amino acids 22-564 of LGR5. Recombinant RSPO1-Fc, RSPO2-Fc, RSPO3-Fc and RSPO4-Fc fusion proteins were immobilized on CM5 chips using standard amine-based chemistry (NHS/EDC). Two-fold dilutions of soluble LGR5-Fc were injected over the chip surface (100 nM to 0.78 nM). Kinetic data were collected over time using a Biacore 2000 system from Biacore Life Sciences (GE Healthcare) and the data were fit using the simultaneous global fit equation to yield affinity constants (KD values) for each RSPO protein (Table 3).
For orientation: SPR reads the build-up and loss of mass on a sensor chip optically.

For assay [2], the target named is B10. In words: SPR (Biacore 2000), human RSPO2-Fc immobilized on CM5 chip, antibody injected 100 nM to 0.78 nM. The protocol:
The KD of h130M23-H1L2 and h130M23-H1L6 were determined using a Biacore 2000 system from Biacore LifeSciences (GE Healthcare). Recombinant human RSPO2-Fc protein was immobilized on CM5 chips using standard amine-based chemistry (NHS/EDC). The antibodies were serially diluted 2-fold from 100 nM to 0.78 nM in HBS-P (0.01M HEPES pH7.4, 0.15M NaCl, 0.005% v/v Surfactant P20) and were injected over the chip surface. Kinetic data were collected over time and were fit using the simultaneous global fit equation to yield affinity constants (KD values) for each antibody.

In assay [3] the target is B1. In words: SPR (Biacore 2000), RSPO1-Fc immobilized on CM5 chip, antibody injected 100 nM to 0.78 nM. The protocol: (§1) The KDs of antibodies 89M4, 89M5, 89M7 and 89M25 were determined using a Biacore 2000 system from Biacore LifeSciences (GE Healthcare). Recombinant human RSPO1-Fc or mouse RSPO1-Fc proteins were immobilized on CM5 chips using standard amine-based chemistry (NHS/EDC). The antibodies were serially diluted 2-fold from 100 nM to 0.78 nM in HBS-P (0.01M HEPES pH7.4, 0.15M NaCl, 0.005% v/v Surfactant P20) and were injected over the chip surface. Kinetic data were collected over time and were fit using the simultaneous global fit equation to yield affinity constants (KD values) for each antibody.

The target in assay [4] is T2, recombinant mouse RSPO1-Fc protein (mouse, UniProt Q9Z132 21-265, limits assumed).
T2 construct: Construct not described; not shown: Fc; not described
Described as above. The protocol: as §1

Assay [5] has as its target Figure 9A construct 4: Positive charge, furin1, furin2, cysteine, Thrombospondin, Positive charge (human) (UniProt Q2MKA7). In words: FACS, HEK-293 cells transfected with the FLAG-RSPO1 portion-CD4TM construct in Figure 9A; anti-RSPO1 antibody 89M5, PE-conjugated secondary antibody.
Assay [6] has as its target Figure 9A construct 3: Positive charge, furin1, furin2, cysteine, Thrombospondin (human) (UniProt Q2MKA7). The assay is described as above.
Assay [7] concerns the target Figure 9A construct 5: furin1, furin2, cysteine (human) (UniProt Q2MKA7). Described as above.
Assay [8] concerns the target Figure 9A construct 2: Positive charge, furin1, furin2 (human) (UniProt Q2MKA7). The description is as above.
For assay [9], the target named is Figure 9A construct 1: Positive charge, furin1 (human) (UniProt Q2MKA7). The description is as above.
The target of assay [10] is B10. In words: SPR (Biacore 2000), RSPO2-Fc immobilized on CM5 chip, antibody injected 100 nM to 0.78 nM. Here is the method:
(§2) The KD of 130M23 was determined using a Biacore 2000 system from Biacore LifeSciences (GE Healthcare). Recombinant human RSPO2-Fc or mouse RSPO2-Fc proteins were immobilized on CM5 chips using standard amine-based chemistry (NHS/EDC). The antibodies were serially diluted 2-fold from 100 nM to 0.78 nM in HBS-P (0.01M HEPES pH7.4, 0.15M NaCl, 0.005% v/v Surfactant P20) and were injected over the chip surface. Kinetic data were collected over time and were fit using the simultaneous global fit equation to yield affinity constants (KD values) for each antibody.

Assay [11] addresses T3, recombinant mouse RSPO2-Fc protein (mouse, UniProt Q8BFU0 24-243, limits assumed).
T3 construct: Construct not described; not shown: Fc; not described
Described as above. The protocol: as §2

T3 sequence (Q8BFU0 24-243 limits assumed): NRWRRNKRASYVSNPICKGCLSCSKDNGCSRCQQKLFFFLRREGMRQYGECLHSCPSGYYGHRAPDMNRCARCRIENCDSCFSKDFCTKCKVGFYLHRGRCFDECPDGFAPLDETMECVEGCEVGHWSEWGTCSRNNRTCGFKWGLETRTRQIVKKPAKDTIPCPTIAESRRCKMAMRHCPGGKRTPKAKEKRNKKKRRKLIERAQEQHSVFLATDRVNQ
Figure 9A construct 1: Positive charge, furin1 (human), sequence (Q2MKA7 other isoform, or with tags, fused parts or gaps): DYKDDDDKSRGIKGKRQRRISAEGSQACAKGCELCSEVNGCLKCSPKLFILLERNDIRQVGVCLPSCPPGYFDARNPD
Figure 9A construct 2: Positive charge, furin1, furin2 (human), sequence (Q2MKA7 other isoform, or with tags, fused parts or gaps): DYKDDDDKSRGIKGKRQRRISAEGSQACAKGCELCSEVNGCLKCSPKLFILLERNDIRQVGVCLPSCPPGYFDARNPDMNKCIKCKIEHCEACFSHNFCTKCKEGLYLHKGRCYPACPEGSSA
Figure 9A construct 3: Positive charge, furin1, furin2, cysteine, Thrombospondin (human), sequence (Q2MKA7 other isoform, or with tags, fused parts or gaps): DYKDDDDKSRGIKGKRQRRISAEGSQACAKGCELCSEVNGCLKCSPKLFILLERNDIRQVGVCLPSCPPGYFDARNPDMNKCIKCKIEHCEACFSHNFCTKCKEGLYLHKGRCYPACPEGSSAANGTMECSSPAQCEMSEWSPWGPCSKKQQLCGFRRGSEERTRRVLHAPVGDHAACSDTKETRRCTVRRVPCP
Figure 9A construct 5: furin1, furin2, cysteine (human), sequence (Q2MKA7 other isoform, or with tags, fused parts or gaps): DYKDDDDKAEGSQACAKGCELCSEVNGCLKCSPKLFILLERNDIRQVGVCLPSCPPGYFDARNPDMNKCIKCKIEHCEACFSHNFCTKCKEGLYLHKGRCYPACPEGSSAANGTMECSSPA

Usually Kd stands for the constant that tells how readily two partners part at equilibrium. In [1], B1 had a Kd of 110000 pM.

In the case of B2, the Kd in assay [1] stood at 73000 pM. In the case of B3, the Kd in assay [2] turned out to be 130 pM. Same read-out and setting: then B4, with 150 pM.

Consider B5, for which the Kd in assay [3] and in assay [4] was < 100 pM throughout. Also, the MFI in [5] was 10.3; in [6], 20.1; in assay [7] it was 406; in assay [8], 15.5; in assay [9], 5.42.

In the case of B6, the values for the Kd in assay [10] and in assay [11] were 140 pM and 350 pM, respectively. For the molecule B7, the Kd in assay [3] and in assay [4] was < 100 pM in each case. On to B8, for which the Kd in assay [3] and in [4] was < 100 pM throughout.

Consider B9, for which the Kd in assay [1] was < 1000 pM.

The molecule B10 had a Kd in assay [1] of 14000 pM.
